B1: SEQ_ID_#953 (nucleic acid, listed as Homo sapiens)
DNA: TGGTTTCGGTCTATTTATCCAGGGACACCACAGCTTTGGAGGCAGCAAACATGCCCATTTGTTACTATTTGCAAAGATGGTGTACACCAAACATGGGCTTTCCGTAAACAAATTAAAAAGTAATAAAGTGGCCCCATCTGCATACTAGAGCAATGTGCTTCCATTTTAATGAAGCTTGCTATAGAAAAGCCATTTGATGGCTTGTCAAAAGCGTGAATGCCTGTGGCTGAACGTGGAAGTATGCTGTGGTGCAAAGACGTAGTCCTTTCTTCCTCCAGTATGCACGGGGCACCTGCCACACCTGCTGCAAGGACCTGGTCCTGCCCCTAGGCCATCTGCTACGCCAAGGAGACCCAGGTCTTTCCAGTTTCTACCAGGCCCTTTAATGCTCTATCCTGTGGCCCACCCAAGGTTGCAGAGCTGGTAAGCTCTGGAGGTTGAACACAGGCAGTCTGGGCAGAGTGCCTGCTCACTGTCCTGCCTCTCCT
B2: SEQ_ID_#917 (nucleic acid, listed as Homo sapiens)
DNA: TTGTTTGGAAAGATGAAAAATTTATTAGAAAAGATCTTTAAATGGCTTTTACTAAAGCGTCATTTAACAATTTTTCATATTATAGAAACAGCTTTTCATGGATGGTGTGACTGGGTCTGTATCCAAACCCGGTTCGGTTCCTGGAGCCAACGGCGTAGTTAACACTCAGCCTCTTGCAGTTAACACTCAGCCTCTTAACTGGGAGTGGCCCTGGAGCAAGTCGCTGGAATGTTCAAGCTCCGCGTCACTCATCGGTACCAAGTTGATGATCTCTGCCTAGGGTTCTTCGCCACCCTCAGGCTCAAGTCCCAGGAGGCCTCCTCCGCTGACTTGGGTGAACAGCTCTGAGTTCCGGAGAGGGTTCGGTCTGCGGAGAAGCGCGCGAGAGACAAGCATCCTCAAGGTTCTGGTACAAAATTTGGAAAATGACCTGGCGTTGAAATCTTTACTCCTCGTTTAAAAAGACCATCGAAAGGGAAAAAATAAAAGAAATTGCAGTTTATATTTTTGTTATCCCATGAAAAATTAGCTGCAGTGTTTTCCTCTTCATGCCAAAGAGATTAATATTTACGGTGAAGACTTTTCCAGGAAGTCGTGGTTTTCTGGGGCCCTGCCTCTGAGCCTTTTGTTTCCTCCTTTTTAAAAACACCGGATGAAAGACCCAGTGTGCCTTGGATCGCAGAGCGCGGCCGCATGTCTGCTTTGA
B3: SEQ_ID_#948 (nucleic acid, listed as Homo sapiens)
DNA: AGAGGCGGGCTTCCCTCGGAAAACGGAGGGTTGAAACCCAGAAAGCTCCTCGGAGCCCTTCTGGGGTTCGGGCGATCTGGGCAGAGAACTCTCGGGTGGCAAGGAATTAAGGGCAGCGCGAACGACGGTCTCTAGACAAGTATGAAGCCTCCCCTGAGTGTGTCCGGCGCTCAGGGGGTGGACCGGGGTGTTGGTTTCAAGGAGGGGGCCATCGTTTGCACCACGGCGTCCAGAAATACTCATCCTTTGCCCTTCGGGGAGGCAACAGAGCAGCCAACTGACTGTTCTGGCCAAAGAGACTGGAGATCCAGTATCAGCAAGCTACTTTCTTGGTAAACCTCCATTTCCCAATGCTCATCTTTGTCCTCTACCCCCACCCATCCCAAGGCAAATGATGAAAACATCTATTGGATCCAGCCTTTGCTATCTTCTCCATGCTGCTCATAGTGGGTCTAGCAATGTCCCATTCTCGGTAATGTTTGGTAGGTCTAAAACATCCTCACGAAATGTTCCCCAAATGTTCTGCTCCAGCTGAGCAACTAATAACAATGGGAAGATGCAGAAAAAAAATGCATGGAGCATAATGTTAGTTTTGGGACTCGTCAGTGGCAACGTTTTAGAGATGCCATGAAGAATTCCTGGTAATAATCCTTCTTCCTACAGCATTTAGCAATGAATACTATGGGATTATGGCTAAAAGATGGTCAAGACTGCCTCAGCCATTAGGATCAGAATTCTAAGTTCCAAAGAAGAGCAAACTCAAGAGGATTTCCTCAGGCCTCTGACTATAGATGCTGCCTGGGGAGAACAGGTGCTACACTCAAAACATTCTCATTTTATTTATATCCTCCCTGAACTAGTACCCAACTCCATAACCCCAGACTCAAATAACAGAAATAAAAGCCATCTCACTGATTATAAGCTCTCTAGTTATTACAAAAATAAATAAGCATCAATCAACCAACAGGCATCAGAATGAGAAAATCACTGATTTGAGACATTCAGGCTGCAGGAAAAGAACACTTTTTGTTAATATGTAACTATATCTTCAGTAGTACAGAAAAATGAGAAGAACGAGAGTTCTTACCTGGATTTGCGGCTCACTTAAAGTAGAGCACCTGAGATGCTGGGAAATCATAAAGATAAATAACCAATCTAACAAATTCCTGCCATGAGACCAAAGTGATCCTTGACTACTCTATTAGTAAGCGACTCTGAGCCAAGAGTACGAACCTGTAAGTGGAGTGGTGGTTGGCCCATTAGAAATCTCTGAAAGATCTAAACATGACAGTTACCTTCCTACTGGACTCATACTTCTCAATTCCCTCTCCTAAAAGAATACTTTTGGGCTGGCCCCAGTGGCTCACACCTGTAATCTCGGCACTTTGGGAAGCCAAGGTGGGAGGATTGCTTGAGGACAAGAGTTTGAGACCAGCTCGGTGGAAACATAGCACCATCCATGTCTCTACC
B4: SEQ_ID_#978 (nucleic acid, listed as Homo sapiens)
DNA: GTATATGTTAAAAAAAGAGAAGGTCGCATTATGGACAGACTTCGTGAATGGGAATTTGCTTAGAATTGTGAGTAGTTCTGAATTAGAAAAGTATGTGAAGGAAAGGCAGCTGTAAACGTATTGTGCCCTGGAGAGTTGTACACATGTTGAAATGTAATCTGGGCTTACCTGATCCATTTGGAGTGGATGTCACTGCCGAGTCTGTTCTCACATGGAACCATGTGTGTGGGGTTGCCAGCCTCACAGATACAATCAATCCTATTCCCCTCTGACATAAGGAACTCCTCTGGAGTGGCAGAGTCTTATCACAGAAGGCAGCCACCATTTCACCAAAACAAAAGTTCACGGCATTCAATTCCTTTTTCCTTTAGCTATTTATATATGCAGTACTCTCAGTCATATGCAGAAATACTTTTTTTTTTTAATTAATAGTTACAGGCTTGTTGGTCCAGTGGGATTTGGGTAGGGGGAGAAAGATACCTTCTAAAATGGATCAATAGAACCAAAATAATACAGCATGTTCTATAACCACAAGGAAATCAAATGATCCTGTCATGATTCCAGTTAGTCATAACTATGTTAGCAGTGCTAAATGCATTTTAGAAATGGTGACTTCTGTGGTTTTCCTAGCATTTGTCTCTAACAAATGGTGAAATAATTACTCATGGCCCTCTCTGCCATTGTCTTTCATTTTTTCACAGTGAAATTAGACCCCTTTACTTCACCATTCTGCCACTGCAAATTAAGTATAAAGAAAATAGCAAGAGTGTCCACACCAGTAGACAGTAAGCTTCTCTACCTGTAAGTGATGAAATCATAGCTAATGCACTTGCCATGGAGTTTTCAAGATGATTGGTGTCAGACAGTTTTCACTTTGTTTAAAAAGTGTTGGTGGCCTTTTGTGGTGGTGTTACAATCCTCTGGGGGCTTAGGAGGATGTTGATGCAACTTTTAGAAGCTTTTAATTTCAAAAACAACTCAAAAATCTGAAGGACAGTCATAGCTGCCACTCAGCCCCAGTTAGTCAAACCCCAGTGACCTTTGCCCCTGGTTGCCAAGGGCTTTGCAACATCAAGCAGGGAAATAAGGATCTGTCTGTTTAGTGGATACCGTGTATCCTTTAATAGACCAGGTAACAGTTCGTGTTAGTTTAGACTATTGTTTTGTACTGTACTTTCTTGGGTGGCAGAGGAAAGAAAAGTAAAACATT

test system: EE transcriptome; experiment: Genome-wide microarray transcript profiling of esophageal biopsies, EE patients vs normal individuals (EE transcriptome); conditions: transcript level in esophageal biopsies of EE patients compared to normal individuals (NL); Affymetrix Human Genome U133 plus 2; p<0.01; >1 up-regulated, <1 down-regulated
Description: Esophageal tissue obtained from patients previously diagnosed with EE was analyzed. Diagnosis was based on analysis of excised tissue from endoscopic biopsy. Tissues from patients with EE, as well as patients not having EE (controls) were subjected to genome-wide microarray transcript profiling (Affymetrix GeneChip). All work was performed at the Core facility at Children's Hospital Medical Center (Cincinnati Ohio).
Briefly, RNA quality was first assessed using the Agilent bioanaiyzer (Agilent Technologies, Palo Alto Calif.). Only mRNA having a ratio of 28S/18S between 1.3 and 2 were subsequently used. RNA was converted to cDNA with Superscript choice for cDNA synthesis (Invitrogen, Carlsbad Calif.) and subsequently converted to biotinylated cRNA with Enzo High Yield RNA Transcript labeling kit (Enzo Diagnostics, Farmingdale N.Y.). After hybridization to the GeneChip (Affymetrix, Santa Clara Calif.), the chips were automatically washed and stained with streptavidin-phycoerythrin using a fluidics system. The chips were scanned with a Hewlett Packard GeneArray Scanner. Over 30,000 unique genes were screened.
Levels of gene transcripts were determined from data image files, using algorithms in the Microarray Analysis Suite software (Affymetrix). Levels from chip to chip were compared by global scaling. Each gene was typically represented by a probe set of 16 to 20 probe pairs. Each probe pair consisted of a perfect match oligonucleotide and a mismatch oligonucleotide that contained a one base mismatch at a central position. Two measures of gene expression were used, absolute call and average difference. Absolute call is a qualitative measure in which each gene is assigned a call of present, marginal or absent, based on the hybridization of the RNA to the probe set. Average difference is a quantitative measure of the level of gene expression, calculated by taking the difference between […] of every probe pair and averaging the differences over the entire probe set. Data were normalized and an EE transcriptome gene list was created with results having p<0.01 (Welch t-test with or without false rate discovery) and ≥1.5-fold change.
For evaluation of EE using clinical and/or physical assessment, biopsy tissues (obtained from the distal esophagus during routine endoscopy) were submerged in formalin for routine pathological analysis with hematoxylin and eosin staining. Diagnosis was established based on the maximum eosinophil count per high power field (hpf) and basal layer expansion according to method known in the art (e.g., established criteria in Rothenberg et al., Pathogenesis and clinical features of eosinophilic esophagitis. J Allergy Clin Immunol 108 (2001) 891; Attwood et al., Esophageal eosinophilia with dysphagia. A distinct clinicopathologic syndrome. Dig Dis Sci 38 (1993)109; Fox et al., Eosinophilic esophagitis: its not just kid's stuff. Gastrointest Endosc 56 (2002) 26, each of which is expressly incorporated by reference herein in its entirety. Normal individuals (NL), n=13, served as a control and were defined as having 0 eosinophils/hpf and no basal layer expansion. Individuals with EE (n=76) were defined as having >24 eosinophils/hpf and extensive basal layer hyperplasia (expansion to about >⅓ of epithelium).
The data were analyzed by cluster analysis and ordered (standard correlation (A) and distance (B)) using Genespring software. […] Each column represented a separate individual and each line a gene. RNA from each patient was subjected to chip analysis using Affymetrix Human Genome U133 GeneChip plus 2.

Compared with B1, B2 is higher in “Fold Change” value: 0.627 for the first, 0.637 for the second.

Going from B3 to B4, the “Fold Change” value falls from 0.629 to 0.62.

Reference: patent publication US10155985B2, “Evaluation of eosinophilic esophagitis” (CHILDREN'S HOSPITAL MEDICAL CENTER, priority 2004, dated 2018)
